Changes are numbered by the printed parent chain. Names may count otherwise.

Ten molecules from patent US20250263462A1 (published 2025) can be followed below.

The chains are these.
T1: KRAS G12D peptide on HLA-A*11:01 (human)
T1 peptide: VVGADGVGK

T2: KRAS G12V peptide on HLA-A*11:01 (human)
T2 peptide: VVGAVGVGK

T3: KRAS wild type peptide on HLA-A*11:01 (human)
T3 peptide: VVGAGGVGK

T4: KRAS G12D peptide on HLA-A*11:01 (human)
T4 peptide: VVVGADGVGK

T5: KRAS G12V peptide on HLA-A*11:01 (human)
T5 peptide: VVVGAVGVGK

T6: KRAS wild type peptide on HLA-A*11:01 (human)
T6 peptide: VVVGAGGVGK

T7: KRAS G12D peptide on HLA-A*11:01 (human)
T7 peptide: VVVGADGVG

B1: TRAV12N-3*01/BV4*01 murine anti-KRAS G12D TCR (SEQ ID NOs: 11 and 12) (TCR, V domains shown)
Valpha: GDSVTQTEGLVTLTEGLPVMLNCTYQTIYSNPFLFWYVQHLNESPRLLLKSFTDNKRTEHQGFHATLHKSSSSFHLQKSSAQLSDSALYYCALRGNAGAKLTFGGGTRLTVRP
Vbeta: ETAVFQTPNYHVTQVGNEVSFNCKQTLGHDTMYWYKQDSKKLLKIMFSYNNKQLIVNETVPRRFSPQSSDKAHLNLRIKSVEPEDSAVYLCASSSRDWSAETLYFGSGTRLTVL
B2: TRAV19*01/TRBV13-1*02 murine anti-KRAS G12V TCR (SEQ ID NOs: 145 and 146) (TCR, V domains shown)
Valpha: GQQVKQSSPSLTVQEGGILILNCDYENDMFDYFAWYKKYPDNSPTLLISVRSNVDKREDGRFTVFLNKSGKHFSLHITASQPEDTAVYLCAAGDSGGSNYKLTFGKGTLLTVTP
Vbeta: EAAVTQSPRNKVTVTGGNVTLSCRQTNSHNYMYWYRQDTGHGLRLIHYSYGAGNLQIGDVPDGYKATRTTQEDFFLLLELASPSQTSLYFCASASWGGYAEQFFGPGTRLTVL
B3: TRAV3-3*01/TRBV4*01 murine anti-KRAS G12V TCR (SEQ ID NOs: 133 and 134) (TCR, V domains shown)
Valpha: GEQVEQRPPHLSVREGDSAVITCTYTDPNSYYFFWYKQEPGASLQLLMKVFSSTEINEGQGFTVLLNKKDKRLSLNLTAAHPGDSAAYFCAVSGGTNSAGNKLTFGIGTRVLVRP
Vbeta: ETAVFQTPNYHVTQVGNEVSFNCKQTLGHDTMYWYKQDSKKLLKIMFSYNNKQLIVNETVPRRFSPQSSDKAHLNLRIKSVEPEDSAVYLCASSRDWGPAEQFFGPGTRLTVL
B4: TRAV4-4/DV10*01/BV12-2*01 murine anti-KRAS G12D TCR (SEQ ID NOs: 157 and 158) (TCR, V domains shown)
Valpha: GDQVEQSPSALSLHEGTDSALRCNFTTTMRSVQWFRQNSRGSLISLFYLASGTKENGRLKSAFDSKERRYSTLHIRDAQLEDSGTYFCAADSSNTGYQNFYFGKGTSLTVIP
Vbeta: NSGVVQSPRYIIKGKGERSILKCIPISGHLSVAWYQQTQGQELKFFIQHYDKMERDKGNLPSRFSVQQFDDYHSEMNMSALELEDSAVYFCASSLTDPLDSDYTFGSGTRLLVI
B5: TRAV12N-3*01 + TRBV5*01 (TCR)
Valpha: B1 Valpha
beta TRBV5*01 2*01/2-1*01 CDR3: CASSQDSLGRAEQFF
B6: TRAV3-3*01 + TRBV13-1*02 (TCR, V domains shown)
Valpha: B3 Valpha
Vbeta: B2 Vbeta
B7: TRAV19*01 + TRBV4*01 (TCR, V domains shown)
Valpha: B2 Valpha
Vbeta: B3 Vbeta
B8: Substituted TRAV4-4/DV10*01/BV12-2*01 (CDR3alpha G112A) (SEQ ID NOs: 209 and 158) (TCR, V domains shown)
Valpha: B4 Valpha with G96A
Vbeta: B4 Vbeta
B9: TRAV16D/DV11*03 + TRBV5*01 (TCR)
alpha TRAV16D/DV11*03 52*01 CDR3: CAMREDTGANTGKLTF
beta TRBV5*01 2*01/2-1*01 CDR3: CASSQDSLGRAEQFF
B10: TRAV16D/DV11*03 + TRBV4*01 (TCR)
alpha TRAV16D/DV11*03 52*01 CDR3: CAMREDTGANTGKLTF
Vbeta: B1 Vbeta

The target in one assay is T1, KRAS G12D peptide on HLA-A*11:01. Kind of assay: cytokine release.
On to B1, for which the binding result is on record as “no recognition”.

B2: the binding result is “no recognition”.

With B3, the binding result is on record as “no recognition”.

On to B4, for which the binding result is “no recognition”.

The next assay deals with T2, KRAS G12V peptide on HLA-A*11:01. Kind of assay: cytokine release.
With B2, the binding result is recorded as “no recognition”.

The next assay concerns the target T3, KRAS wild type peptide on HLA-A*11:01. Nature of the assay: cytokine release.
As to B1, the binding result was “no recognition”.

On to B4, for which the binding result is recorded as “no recognition”.

Another assay addresses T4, KRAS G12D peptide on HLA-A*11:01. Nature of the assay: cytokine release.
With B5, the binding result is “no recognition”.

Turning to B1, the binding result is recorded as “recognises”.

As for B2, the binding result is given as “no recognition”.

B6: the binding result was “no recognition”.

Consider B7, for which the binding result was “no recognition”.

With B3, the binding result is reported as “no recognition”.

As to B8, the binding result is “recognises”.

For another assay, the target named is T5, KRAS G12V peptide on HLA-A*11:01. Kind of assay: cytokine release.
As for B5, the binding result is listed as “no recognition”.

Turning to B1, the binding result is given as “no recognition”.

Take B9: the binding result is “no recognition”.

Consider B2, for which the binding result was “recognises”.

Take B6: the binding result is “no recognition”.

In the case of B7, the binding result is reported as “no recognition”.

B3: the binding result is “recognises”.

B10: the binding result is “no recognition”.

As for B4, the binding result is on record as “no recognition”.

The target in another assay is T6, KRAS wild type peptide on HLA-A*11:01. Kind of assay: cytokine release.
Take B5: the binding result is recorded as “no recognition”.

For the molecule B1, the binding result is “no recognition”.

Turning to B9, the binding result is “no recognition”.

As to B2, the binding result is listed as “no recognition”.

Turning to B6, the binding result was “no recognition”.

Take B7: the binding result is reported as “no recognition”.

As to B3, the binding result was “no recognition”.

Consider B10, for which the binding result is “no recognition”.

Turning to B4, the binding result is “no recognition”.

For the next assay, the target named is T7, KRAS G12D peptide on HLA-A*11:01. Kind of assay: cytokine release.
B1: the binding result was “no recognition”.
